Data taken from PMC7233526 (Biochemistry, 2020).

T1: full-length rat Adrenodoxin (Adx), wild type (rat, UniProt P24483 65-188)
T1 sequence (looked up): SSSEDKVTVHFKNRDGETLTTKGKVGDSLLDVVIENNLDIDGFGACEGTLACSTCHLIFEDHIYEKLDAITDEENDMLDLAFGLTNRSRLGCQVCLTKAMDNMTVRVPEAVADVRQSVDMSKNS

B1: rat CYP24A1 (cytochrome P450 24A1), S57D, without the 32 residue leader sequence (enzyme, UniProt Q09128 33-514, looked up)
chain: SASRAPKEVPLCPLMTDGETRNVTDLPGPTNWPLLGSLLEIFWKGGLKKQHDTLAEYHKKYGQIFRMKLGSFDSVHLGSPSLLEALYRTESAHPQRLEIKPWKAYRDHRNEAYGLMILEGQEWQRVRSAFQKKLMKPVEIMKLDKKINEVLADFLERMDELCDERGRIPDLYSELNKWSFESICLVLYEKRFGLLQKETEEEALTFITAIKTMMSTFGKMMVTPVELHKRLNTKVWQAHTLAWDTIFKSVKPCIDNRLQRYSQQPGADFLCDIYQQDHLSKKELYAAVTELQLAAVETTANSLMWILYNLSRNPQAQRRLLQEVQSVLPDNQTPRAEDLRNMPYLKACLKESMRLTPSVPFTTRTLDKPTVLGEYALPKGTVLTLNTQVLGSSEDNFEDSHKFRPERWLQKEKKINPFAHLPFGIGKRMCIGRRLAELQLHLALCWIIQKYDIVATDNEPVEMLHLGILVPSRELPIAFRPR
B2: rat Adrenodoxin L80Q (natural protein, UniProt P24483 65-188, looked up)
chain: SSSEDKVTVHFKNRDGETLTTKGKVGDSLLDVVIENNLDIDGFGACEGTLACSTCHLIFEDHIYEKLDAITDEENDMLDQAFGLTNRSRLGCQVCLTKAMDNMTVRVPEAVADVRQSVDMSKNS

What was measured:
[1] = target: T1, full-length rat Adrenodoxin (Adx), wild …; assay: cross-linking
[2] = target: B1; assay: NMR titration

Binder | stoichiometry N [1] | binding result [2]
B1 | 1 | –
B2 | – | binds
